Assay results: publication PMC10786891, “Massively parallel profiling of RNA-targeting CRISPR-Cas13d”
Positions count from the first letter of the chain named. Names and notes keep the numbering of the source.

T1: EsCas13d, nuclease-dead (Eubacterium siraeum, UniProt B0MS50, R295A;H300A;R849A;H854A)
T1 sequence: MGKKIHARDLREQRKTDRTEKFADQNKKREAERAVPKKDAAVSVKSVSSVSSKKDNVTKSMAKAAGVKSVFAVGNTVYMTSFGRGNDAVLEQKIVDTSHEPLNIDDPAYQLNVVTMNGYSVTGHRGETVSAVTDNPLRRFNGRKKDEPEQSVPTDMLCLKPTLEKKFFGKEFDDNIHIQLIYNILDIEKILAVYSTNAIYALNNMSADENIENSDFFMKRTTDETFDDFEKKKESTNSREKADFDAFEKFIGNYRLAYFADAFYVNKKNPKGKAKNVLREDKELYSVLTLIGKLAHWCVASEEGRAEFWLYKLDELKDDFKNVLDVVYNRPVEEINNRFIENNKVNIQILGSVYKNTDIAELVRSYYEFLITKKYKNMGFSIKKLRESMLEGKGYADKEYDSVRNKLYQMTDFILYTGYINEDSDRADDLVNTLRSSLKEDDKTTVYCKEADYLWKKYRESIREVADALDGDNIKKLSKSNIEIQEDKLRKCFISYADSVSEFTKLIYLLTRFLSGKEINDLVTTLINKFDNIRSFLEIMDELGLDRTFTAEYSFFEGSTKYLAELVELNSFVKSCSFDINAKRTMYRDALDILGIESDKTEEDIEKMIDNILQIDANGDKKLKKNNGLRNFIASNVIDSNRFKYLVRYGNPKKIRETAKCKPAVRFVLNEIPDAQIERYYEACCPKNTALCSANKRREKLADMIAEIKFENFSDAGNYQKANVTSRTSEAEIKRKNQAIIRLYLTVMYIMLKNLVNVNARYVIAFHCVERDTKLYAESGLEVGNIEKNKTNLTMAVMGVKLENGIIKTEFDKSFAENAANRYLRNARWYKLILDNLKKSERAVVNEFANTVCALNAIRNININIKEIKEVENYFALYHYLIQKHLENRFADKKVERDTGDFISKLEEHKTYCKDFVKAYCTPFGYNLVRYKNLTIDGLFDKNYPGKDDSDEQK

B1: target 2 MT 5'PFS UUU 3'PFS UUA (mixed)
RNA 1: CACCCGUGCAAAAUUGCAGGGGUCUAAAACCUUCUCCAAAUUGUUUCAUCCU
RNA 2: GGGAAUGGAUCCACAUCUACGAAUUCUUUAGGAUGAAACAAUUUGGAGAAGUUAAGAUCGGAAGAGCACACGU
B2: target 2 MT 5'PFS GAA 3'PFS ACA (mixed)
RNA 1: B1 RNA 1
RNA 2: B1 RNA 2 with U27G, U28A, U29A, U52A, U53C
B3: target 2 MT 5'PFS UUU 3'PFS UUU (mixed)
RNA 1: B1 RNA 1
RNA 2: B1 RNA 2 with A54U
B4: target 1 G12A,A14U (mixed)
RNA 1: CACCCGUGCAAAAAUGCAGGGGUCUAAAACUGAGCGGAUAACCUCUCUAUGG
RNA 2: GGGAAUGGAUCCACAUCUACGAAUUCGUACCAUAGAGUGAUUAUCCGCUCACCGAGAUCGGAAGAGCACACGU
B5: target 2 MT 5'PFS GAA 3'PFS ACU (mixed)
RNA 1: B1 RNA 1
RNA 2: B1 RNA 2 with U27G, U28A, U29A, U52A, U53C, A54U
B6: target 2 MT 5'PFS CGC 3'PFS UAG (mixed)
RNA 1: B1 RNA 1
RNA 2: B1 RNA 2 with U27C, U28G, U29C, U53A, A54G
B7: target 2 MT 5'PFS UAC 3'PFS UCA (mixed)
RNA 1: B1 RNA 1
RNA 2: B1 RNA 2 with U28A, U29C, U53C
B8: target 2 MT 5'PFS UAC 3'PFS UCC (mixed)
RNA 1: B1 RNA 1
RNA 2: B1 RNA 2 with U28A, U29C, U53C, A54C
B9: target 2 MT 5'PFS CGC 3'PFS UGU (mixed)
RNA 1: B1 RNA 1
RNA 2: B1 RNA 2 with U27C, U28G, U29C, U53G, A54U
B10: target 2 MT 5'PFS UGG 3'PFS CUU (mixed)
RNA 1: B1 RNA 1
RNA 2: B1 RNA 2 with U28G, U29G, U52C, A54U
B11: target 2 MT 5'PFS UGC 3'PFS CAA (mixed)
RNA 1: B1 RNA 1
RNA 2: B1 RNA 2 with U28G, U29C, U52C, U53A
B12: target 2 MT 5'PFS UGC 3'PFS CAG (mixed)
RNA 1: B1 RNA 1
RNA 2: B1 RNA 2 with U28G, U29C, U52C, U53A, A54G
B13: target 2 MT 5'PFS GGG 3'PFS UGC (mixed)
RNA 1: B1 RNA 1
RNA 2: B1 RNA 2 with U27G, U28G, U29G, U53G, A54C
B14: target 2 MT 5'PFS UGG 3'PFS CUA (mixed)
RNA 1: B1 RNA 1
RNA 2: B1 RNA 2 with U28G, U29G, U52C
B15: target 1 insG 3' of 18,insA 3' of 5 (mixed)
RNA 1: B4 RNA 1
RNA 2: GGGAAUGGAUCCACAUCUACGAAUUCGUACCAUAGGAGAGGUUAUCCGACUCACCGAGAUCGGAAGAGCACACGU
B16: target 2 MT 5'PFS UGC 3'PFS CAU (mixed)
RNA 1: B1 RNA 1
RNA 2: B1 RNA 2 with U28G, U29C, U52C, U53A, A54U
B17: target 2 MT 5'PFS AAA 3'PFS CUG (mixed)
RNA 1: B1 RNA 1
RNA 2: B1 RNA 2 with U27A, U28A, U29A, U52C, A54G
B18: target 2 MT 5'PFS GAG 3'PFS AGG (mixed)
RNA 1: B1 RNA 1
RNA 2: B1 RNA 2 with U27G, U28A, U29G, U52A, U53G, A54G
B19: target 2 MT 5'PFS GGG 3'PFS UGU (mixed)
RNA 1: B1 RNA 1
RNA 2: B1 RNA 2 with U27G, U28G, U29G, U53G, A54U
B20: target 2 MT 5'PFS UGA 3'PFS CGC (mixed)
RNA 1: B1 RNA 1
RNA 2: B1 RNA 2 with U28G, U29A, U52C, U53G, A54C
B21: target 2 MT 5'PFS UGA 3'PFS CGA (mixed)
RNA 1: B1 RNA 1
RNA 2: B1 RNA 2 with U28G, U29A, U52C, U53G
B22: target 2 MT 5'PFS GUA 3'PFS CAC (mixed)
RNA 1: B1 RNA 1
RNA 2: B1 RNA 2 with U27G, U29A, U52C, U53A, A54C
B23: target 2 MT 5'PFS AGG 3'PFS CAA (mixed)
RNA 1: B1 RNA 1
RNA 2: B1 RNA 2 with U27A, U28G, U29G, U52C, U53A
B24: target 2 MT 5'PFS UGC 3'PFS UAU (mixed)
RNA 1: B1 RNA 1
RNA 2: B1 RNA 2 with U28G, U29C, U53A, A54U
B25: target 2 MT 5'PFS UGC 3'PFS UAA (mixed)
RNA 1: B1 RNA 1
RNA 2: B1 RNA 2 with U28G, U29C, U53A
B26: target 1 C6U,C21A (mixed)
RNA 1: B4 RNA 1
RNA 2: B4 RNA 2 with C31A, U38A, A40G, C46U
B27: target 2 MT 5'PFS UGC 3'PFS UAC (mixed)
RNA 1: B1 RNA 1
RNA 2: B1 RNA 2 with U28G, U29C, U53A, A54C
B28: target 2 MT 5'PFS GAU 3'PFS CCG (mixed)
RNA 1: B1 RNA 1
RNA 2: B1 RNA 2 with U27G, U28A, U52C, U53C, A54G
B29: target 2 MT 5'PFS UAU 3'PFS UAC (mixed)
RNA 1: B1 RNA 1
RNA 2: B1 RNA 2 with U28A, U53A, A54C
B30: target 2 MT 5'PFS UAU 3'PFS UAA (mixed)
RNA 1: B1 RNA 1
RNA 2: B1 RNA 2 with U28A, U53A
B31: target 2 MT 5'PFS UUA 3'PFS ACC (mixed)
RNA 1: B1 RNA 1
RNA 2: B1 RNA 2 with U29A, U52A, U53C, A54C
B32: target 2 MT 5'PFS UUA 3'PFS ACA (mixed)
RNA 1: B1 RNA 1
RNA 2: B1 RNA 2 with U29A, U52A, U53C
B33: target 2 MT 5'PFS UUA 3'PFS ACG (mixed)
RNA 1: B1 RNA 1
RNA 2: B1 RNA 2 with U29A, U52A, U53C, A54G

Target: T1, EsCas13d, nuclease-dead
Experiment: crRNA (strand 1, pre-loaded); Mg2+; 40 mM Tris-HCl pH 7.5, 150 mM NaCl, 6 mM MgCl2, 1 mM DTT, 0.1% Tween-20, 0.2 mg/ml BSA; 25 C; 10 min per concentration, then washed
Conditions: tags: His6-TwinStrep-SUMO cleaved; N-terminal SNAP kept (SNAP-Surface 488); label: 3' end held by stalled T7 RNA polymerase

Which Kd does the source give for B1 here?
Its Kd is 9.9 ± 1.3 nM.

Which Kd does the source give for B2 here?
The Kd was 12 ± 4 nM.

With B3 as the binder, how does the Kd read?
Its Kd is 20 ± 4 nM.

How did the Kd turn out when B4 was run?
Its Kd is 26.3 ± 1.7 nM.

Which Kd does the source give for B5 here?
Its Kd is 13.3 ± 2.6 nM.

How did the Kd turn out when B6 was run?
Its Kd is 3.3 ± 0.5 nM.

With B7 as the binder, how does the Kd read?
Its Kd is 6.3 ± 1 nM.

With B8 as the binder, how does the Kd read?
The Kd was 15.1 ± 2.8 nM.

For B9, which Kd is on record?
Its Kd is 5.6 ± 0.5 nM.

B10 was tested. Which Kd did it give?
The Kd was 7 ± 0.7 nM.

With B11 as the binder, how does the Kd read?
Its Kd is 13 ± 2.3 nM.

Which Kd does the source give for B12 here?
Its Kd is 16.2 ± 2.2 nM.

B13 was tested. Which Kd did it give?
The Kd was 12.8 ± 1.4 nM.

For B14, which Kd is on record?
The Kd was 7 ± 1.3 nM.

Which Kd does the source give for B15 here?
The Kd was 36 ± 4 nM.

B16 was tested. Which Kd did it give?
Its Kd is 25 ± 8 nM.

B17 was tested. Which Kd did it give?
The Kd was 5.5 ± 1.1 nM.

How did the Kd turn out when B18 was run?
The Kd was 5.5 ± 0.4 nM.

B19 was tested. Which Kd did it give?
The Kd was 12.2 ± 0.8 nM.

With B20 as the binder, how does the Kd read?
The Kd was 8.5 ± 1.1 nM.

How did the Kd turn out when B21 was run?
The Kd was 7.2 ± 0.8 nM.

How did the Kd turn out when B22 was run?
Its Kd is 9.6 ± 1.2 nM.

B23 was tested. Which Kd did it give?
Its Kd is 4.1 ± 0.7 nM.

B24 was tested. Which Kd did it give?
Its Kd is 14.3 ± 2.6 nM.

Which Kd does the source give for B25 here?
The Kd was 17 ± 6 nM.

Which Kd does the source give for B26 here?
The Kd was 26.2 ± 1.6 nM.

Which Kd does the source give for B27 here?
The Kd was 21 ± 4 nM.

B28 was tested. Which Kd did it give?
The Kd was 14.2 ± 1.4 nM.

With B29 as the binder, how does the Kd read?
Its Kd is 26 ± 6 nM.

How did the Kd turn out when B30 was run?
Its Kd is 18.1 ± 3 nM.

How did the Kd turn out when B31 was run?
Its Kd is 45 ± 14 nM.

For B32, which Kd is on record?
Its Kd is 37 ± 7 nM.

How did the Kd turn out when B33 was run?
Its Kd is 81 ± 19 nM.
